Measurements: US20240409645A1 (DUALYX, published 2024)

T1: human IL-2Rβ (human, UniProt P14784 27-240, limits assumed)
T1 construct: Recombinant protein, coated (ELISA) or immobilised on CM5 (SPR); also called hu IL-2R; interleukin 2 receptor β-chain
T1 sequence: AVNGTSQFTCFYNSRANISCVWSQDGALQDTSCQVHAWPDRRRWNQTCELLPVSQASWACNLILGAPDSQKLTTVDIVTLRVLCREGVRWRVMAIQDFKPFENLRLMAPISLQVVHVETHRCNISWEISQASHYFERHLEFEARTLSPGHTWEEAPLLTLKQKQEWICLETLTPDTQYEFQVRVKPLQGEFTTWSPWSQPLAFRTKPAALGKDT

B1: FJ1427 P035MP02A12 (VHH)
VHH: QVQLQESGGGLVQAGGSLRLSCAVSGRSFRNYVMGWFRQAPGREREIVAGITQFTSTTYYDDSVKGRFTISRDNAKNTVYLQMNSLKPEDTALYYCAADRSIKMTADWAYWGQGTQVTVSS
notes: soluble VHH in periplasmic extract; also called clone nr
B2: FJ1427 P035MP03D01 (VHH)
VHH: QVQLVESGGGLVQPGGSLGLSCAASGFTFDNYAMSWVRQAPGKGLEWVSSITGAGRGTHYADSVKGRFTISRDNAKNTLYLQMNSLKPEDTAVYYCAKYSSSTYYPPTPARGTDYRGPGTQVTVSS
notes: as for B1
B3: FJ1427_P035MP03E06 (VHH)
VHH: QVQLVESGGGLVQAGRSLGLSCAASGFTFDNYAMSWVRQAPGKGLEWVSSITGAGRGTHYADSVKGRFTISRDNAKNTLYLQMNSLKPEDTAVYYCAKYSSSTYYPPTPARGTDYRGPGTQVTVSS
notes: as for B1
B4: FJ1427_P035MP03F02 (VHH)
VHH: QVQLVESGGGLVQPGGSLRLSCAASGFTFSNYAMSWVRQAPGKGLEWVSSITGAGRGTYYADSVKGRFTISRDNDKNTLYLQMNSLKPEDTAVYYCAKYDSSTYYPPTPARGIADRGQGIQVTVSS
notes: as for B1
B5: FJ1427 P035MP03D04 (VHH)
VHH: QVQLVESGGGLVQPGGSLRLSCAASGFTFSNYAMSWVRQAPGKELEWVSSITSAGRGTHYADTVKGRFTISRDNDENTLYLQMNSLEPEDTAVYYCAKYSSATYYPPTPAQGRDYRGQGTQVTVSS
notes: soluble VHH in periplasmic extract; also called clone nr; 220
B6: FJ1427 P035MP03B01 (VHH)
VHH: QVQLVESGGGLVQAGGSLRLSCAASGFTFSNYAMSWVRQAPGKGLEWVSSITGFGRGTDYADSVKGRFTISRDNAKNTLYLQMNSLKPEDTAVYYCARYSSSTYYPPTPARGTDYRGQGTQVTVSS
notes: as for B1
B7: FJ1427_P035MP02E12 (VHH)
VHH: QVQLQESGGGLVQAGGSMRLSCAASGRTFSNYVIAWFRQAPGKEREFVGAITQTGRGTFYASSVEGRFTLSRLNDQSTVYLQMNSLNPEDTGVYYCSAPRSGRAGTRNQMDYEYWGQGTQVTVSS
notes: as for B1
B8: FJ1427 P035MP02B12 (VHH)
VHH: QVQLVESGGGLVQAGGSLRLSCAASGRADSNAIMAWFRQAPGKEREFIVAVTYSGMPTYQDDSVQGRFTASRDNAKNTVYLQMNSLKPEDTAVYYCAARMYSASTYYGDYDYWGQGTQVTVSS
notes: as for B1
B9: FJ1427_P035MP03H01 (VHH)
VHH: QVQLVESGGGSVQTGGSLRLSCVVSGSHFISDVMGWYRQVPGKQRELVADMADGGSAKYADSVKGRFTILRDSVKNTVTLQMSSLNPEDTGVYYCKAGLWITGRHSDYWGQGTQVTVTS
notes: soluble VHH in periplasmic extract; also called clone nr; 200
B10: FJ1427_P035MP03A04 (VHH)
VHH: EVQLVESGGGSVQTGGSLRLSCVVSGSHFISDVMGWYRQVPGKQRELVADMADGGSVKYGDSVKGRFTILRDSVKNTVTLQMSSLNPEDTGVYYCKAGLWITGRHFDYWGQGTQVTVTS
notes: as for B1
B11: FJ1427 P035MP03A03 (VHH)
VHH: EVQLVESGGGSVQTGGSLRLSCVVSGSHFISDVMGWYRQVPGKQRELVADMADGGSVKYGDSVKGRFTILRDSVKNTVTLQMSSLNPEDTGVYYCKAGLWITGRHFDYWGQGTQVTVTS
notes: as for B1
B12: FJ1427_P035MP03B03 (VHH)
VHH: QLQLVESGGGLVQTGGSLRLSCAVSGSRFISDVMGWYRQVPGKQRELVADMADGGSAKYADSVKGRFSILRDSVKNTVYLQMSSLKPEDTGIYYCKAGLWIAGRHSDYWGQGTQVTVSS
notes: soluble VHH in periplasmic extract; also called clone nr; 210
B13: FJ1427 P035MP03D02 (VHH)
VHH: QVQLQESGGGLVQTGGSLRLSCAVSGSRFISDVMGWYRQVPGKQRELVADMADGGSAKYADSVKGRFSILRDSVKNTVYLQMSSLKPEDTGIYYCKAGLWLAGRHSDYWGQGTQVTVSS
notes: as for B1
B14: FJ1427_P035MP03H04 (VHH)
VHH: QVQLVESGGGLVQAGGSLALSCAASGGTFSSYAMGWFRQAPGKEREFVAATTRGGGRTMYAVSTEGRFSCSRDNAKNTVYLLIKNLKPEDTAVYYCAARTSYYDGTYYPASSDFDIWGQGTQVTVSS
notes: as for B1
B15: FJ1427 P035MP03E01 (VHH)
VHH: QVQLVESGGGLVQAGGSLRLSCAASGGTFSSYAMGWFRQAPGKEREFVAATTRGGGRTMYAVSTEGRFTCSRDNAKNTVYLLMNSLKPEDTAVYYCAAMTSYYSGTYYPDSSDFDIWGQGTQVTVSS
notes: as for B1
B16: FJ1427 P035MP03H05 (VHH)
VHH: QLQLVESGGGLVQAGGSLALSCAASGGTFSSYAMGWFRQAPGKEREFVAATTRGGGRTMYAVSTEGRFSCSRDNAKNTVYLLIKNLKPEDTAVYYCAARTSYYDGTYYPASSDFDIWGQGTQVTVSS
notes: as for B1
B17: FJ1427_P035MP03G01 (VHH)
VHH: EVQLVESGGGLVQAGGSLRLSCAASGGTFSSYAMGWFRQAPGKEREFVAATTRGGGRTMYAVSTEGRFTCSRDNAKNTVYLLMNRVKPEDTAVYYCAARTSYYSGTYYPASSDFDIWGQGTQVTVSS
notes: as for B1
B18: FJ1427_P035MP03A02 (VHH)
VHH: QVQLVESGGGLVQAGGSLRLSCAASGGTFSSYAMGWFRQAPGKEREFVAATTRGGGRTMYAVSTEGRFTCSRDNAENTVYLQMNSLKPEDTAIYYCAAMTSYYSGTYYPDSSDFDIWGQGTQVTVSS
notes: as for B1
B19: FJ1427 P035MP03C04 (VHH)
VHH: EVQLVESGGGLVQAGASLELSCAASGGTFSSYAMGWFRQAPGKEREFVAATTRGGGRTMYAVSTEGRFSCSRDNAKNTVNLLIKNLKPEDTAVYYCAARTSYYDGTYYPASSDFDIWGQGTQVTVSS
notes: as for B1
B20: FJ1427_P035MP02D12 (VHH)
VHH: QVQLVESGGGLVQAGGSLTLSCAASGGAFSSDAKAWFRQAPGKEREFVAAITWAGRGTDYADSVKGRFTITRDNAKATVHLQMNSLKPEDTAVYYCALNPRGVIGPAFRNSNHYTYWGQGTQVTVSS
notes: as for B1
B21: FJ1427 P035MP03C02 (VHH)
VHH: QVQLVESGGGLVQVGDSLRLSCAASGRTVGSANMGWFRQAPGKEREFVAVITWSTGSTVYADSVKGRFTISRDNAKNTVYLDMSSLKPEDTAVYYCAADVYPYSGNLNIMDYWGKGTLVTVSS
notes: as for B1
B22: FJ1427_P035MP03D03 (VHH)
VHH: QVQLVESGGGLVQVGDSLRLSCAASGRTVGSANMGWFRQAPGKEREFVAVITWSTGSTVYADSVKGRFTISRDNAKNTVYLDLSSLKPEDTAVYYCAADVYPYSGNLNIMDYWGKGTQVTVSS
notes: as for B1
B23: FJ1427_P035MP03F01 (VHH)
VHH: QVQLVESGGGLVQVGGSLRVSCAASGRTSGDRNMGWFRQAPGKEREFVGIITWSSGSTVYADSVKGRFTISRDNAKNTVYLDMSSLKPEDTAVYYCAADYYPYSGSWNIMDYWGKGTLVTVSS
notes: as for B1
B24: FJ1427_P035MP03B02 (VHH)
VHH: EVQLVESGGGLVQVGDSLRLSCAASGRTVGSANMGWFRQAPGKEREFVAVITWSTGSTVYADSVKGRFTISRDNAKNTVYLDMSSLKPDDTAVYYCAADVYPYSGNLNIMDYWGKGTLVTVSS
notes: as for B1
B25: FJ1427 P035MP02F12 (VHH)
VHH: QLQLVESGGGLVQTGTSLRLSCAASGHTSRINAMGWFRQFPGKEREFVAAISRNGGSTVYVDSVKGRFTISRDNAKSTVYLQMNSLKPEDTAVYYCTATDAVGWTTRWMTADFGFWGQGTQVTVSS
notes: soluble VHH in periplasmic extract; also called clone nr; 190
B26: FJ1427_P035MP02C12 (VHH)
VHH: EVQLVESGGGSVQAGGSLRLSCAASGRTFSDYTMGWFRQAPGKEREFVVAITGTGHTTDMPDSVEGRFTISRDNAKNTIYLDMKNLKPGDTAVYYCASARGLPVTPLGDIIYWGEGTLVTVSS
notes: as for B1

Experiments:
[1] = molecular target: T1, human IL-2Rβ; test: P.E. binding ELISA on coated protein
Protocol: In a binding ELISA, human or mouse IL-2Rα, IL-2Rβ and IL-2Rγ proteins were coated directly on maxisorp microtiter plates overnight at 4° C. Free binding sites were blocked using 4% Marvel in PBS for 1 hour. Next, 1:5 dilution of P.E. in 1% Marvel/PBS were added to wells and incubated for 1 hour. […] Binding specificity was determined based on O.D. at 450 nm values compared to negative controls.

[2] = molecular target: T1, human IL-2Rβ; test: SPR (Biacore), P.E. off-rate ranking

| Binder | P.E. binding ELISA OD [1] [OD450 nm] | koff [2] [s⁻¹] |
| --- | --- | --- |
| B1 | 0.182 | 0.00451 |
| B2 | 0.307 | 0.00127 |
| B3 | 0.299 | 0.00116 |
| B4 | 0.113 | 0.00191 |
| B5 | 0.447 | 0.0016 |
| B6 | 0.203 | 0.0011 |
| B7 | 0.108 | 0.0115 |
| B8 | 1.25 | 0.000716 |
| B9 | 0.327 | 0.000365 |
| B10 | 0.305 | 0.000373 |
| B11 | 0.296 | 0.000248 |
| B12 | 0.31 | 0.000499 |
| B13 | 0.116 | 0.000796 |
| B14 | 0.262 | 0.000431 |
| B15 | 0.329 | 0.000323 |
| B16 | 0.316 | 0.000772 |
| B17 | 0.192 | 0.00058 |
| B18 | 0.28 | 0.00104 |
| B19 | 0.395 | 0.000307 |
| B20 | 0.658 | 0.00144 |
| B21 | 0.828 | 0.00159 |
| B22 | 0.265 | 0.000538 |
| B23 | 0.221 | 0.00447 |
| B24 | 0.529 | 0.00241 |
| B25 | 0.628 | 0.00294 |
| B26 | 0.616 | 0.00106 |
